The test system of one test is C81 cells. The experiment in a line: C81 xenografts in female athymic nude mice. The test is classed as in vivo. The procedure: FIG. 8A-C. Manipulation of EBP1 expression affects growth of prostate cancer cells in vivo. A. Ectopic expression of EBP1 reduces the growth of androgen independent cells in athymic female mice C81 vector or EBP1 transfected cells were injected subcutaneously into female athymic mice. Tumor development with time is shown (n=10 animals, 20 sites per group). B. Tumor volumes and growth rate. Tumor volumes were calculated as described in “Materials and Methods”. Each point represents the mean±SE (10 mice per group injected at 20 sites). C. Elimination of EBP1 expression enhances growth of androgen dependent LNCaP cells in vivo. A16 lentivirus control or C13 EBP1 shRNA transduced LNCaP cells were injected subcutaneously into female athymic mice. Tumor volumes were calculated as described in “Materials and Methods”. Each point represents the mean±SE (10 mice per group injected at 20 sites). * indicates p 0.04.
Western Blot Analysis. Western blot analysis was performed as previously described (19). The Ebp1 antibody was from Upstate (Lake Placid, N.Y.), the polyclonal antibody to actin from Sigma, the AKT and phospho AKT antibodies from Cell Signaling (Beverly, Mass.) and the AGR2 antibody was previously described (20) Cell Growth Assays Cell growth measurement in complete media was performed as described using a hemocytometer (21). For soft agar growth assays, increasing concentrations of cells (as indicated) were plated in 35 mm Petri dishes in 0.3% agar in complete media and colonies were counted after 10 days of incubation (21). For studies assessing the effect of DHT, HRG or chemotherapeutic agents on cell growth, cells (5×10^3) were plated in 96 well plates in complete media. After a 24-hour attachment period, the medium was replaced with steroid free medium [phenol red free RPMI 1640 and 5% charcoal stripped fetal bovine serum (Sigma)]. After 48 hours of steroid depletion, cells were refed with fresh steroid reduced medium with or without the indicated concentrations of DHT, bicalutamide (Casodex) (10 μM), HRG or the chemotherapeutic drugs at the concentrations indicated. Relative cell growth was determined using a Promega Proliferation Reagent (Promega, Madison Wis.) as per manufacturer's instructions with absorbance being read at […] using a Dynex plate reader. Luciferase Reporter Assays Cells (5×10^4) were plated in 12 well plates in complete media. When cells reached 50-60% confluence, they were transfected using the FuGENE®-6 Reagent (Roche, Indianapolis, Ind.) according to the manufacturer's instructions. Cells were transfected with 0.5 μg of an MMTV-luciferase reporter plasmid and 5 ng of a TK Renilla plasmid (Promega, Madison, Wis.) as an internal control. Complete medium was replaced 24 h after transfection with phenol red free RPMI 1640 with CSS with or without R1881 (10^−8M). Luciferase activity was determined using the Promega Dual luciferase assay kit as described by the manufacturer. In Vivo Studies in Athymic Mice Female nude athymic NCr-nu/nu mice, 4-6 weeks of age, were purchased from the National Cancer Institute (Frederick, Md.). Animals were housed in a pathogen free environment under controlled conditions of light and humidity and received food and water ad libitum. […] Tumors were measured with calipers. Tumor volumes were calculated by the formula width^2×length/2 […]. Mean tumor volume±S.D. were calculated and plotted against time. […] Statistical Analysis Results of growth assays were analyzed using a two-sided Students t-test. […]

In another test the test system is AU565 cells. The experiment in a line: Western blot of ErbB2 in AU565 EBP1 transfectants. The test is classed as cell-based, human. Here is the method: FIG. 10A-C. Effect of ectopic expression of EBP1 on ErbB3 or ErbB2 protein levels. (A and B) Lysates of logarithmically growing MCF-7 vector control cells (CMV) or EBP1 transfected cells (Ebp1) or (C) AU565 cells were blotted with antibodies for ErbB3 or ErbB2 and actin as indicated. Data are representative of three experiments.
2.5. Western blot analysis. Total cell extracts were prepared by direct lysis of cells with lysis buffer [50 mM Tris-HCl (pH 7.4), 1 mM EDTA, 250 mM NaCl, 1% Triton X-100, 0.5 mM DTT, and 1× Complete™ protease inhibitor]. Protein concentrations were measured using a detergent compatible kit (Bio-Rad). Proteins (30 lg per well) were resolved by SDS-PAGE, transferred to PVDF membranes, and immunoblotted as described. […] Images were quantified using IMAGE-J software (NIH). […] Relative cell numbers were determined 4 days later using a Promega Proliferation Reagent as per manufacturer's instructions with absorbance being read at 490 nm using a Dynex plate reader. […] Data were analyzed using a two-tailed Students t-test and a p <0.05 was deemed statistically significant. […]
(Immunoblotting shows a protein as a band on a membrane.)

B1: EBP1: ErbB3 binding protein (SEQ ID NO: 2), AR corepressor, here ectopically expressed in cancer cells by stable transfection of an expression plasmid (protein, listed as Homo sapiens)
chain: MSGEDEQQEQTIAEDLVVTKYKMGGDIANRVLRSLVEASSSGVSVLSLCEKGDAMIMEETGKIFKKEKEMKKGIAFPTSISVNNCVCHFSPLKSDQDYILKEGDLVKIDLGVHVDGFIANVAHTFVVDVAQGTQVTGRKADVIKAAHLCAEAALRLVKPGNQNTQVTEAWNKVAHSFNCTPIEGMLSHQLKQHVIDGEKTIIQNPTDQQKKDHEKAEFEVHEVYAVDVLVSSGEGKAKDAGQRTTIYKRDPSKQYGLKMKTSRAFFSEVERRFDAMPFTLRAFEDEKKARMGVVECAKHELLQPFNVLYEKEGEFVAQFKFTVLLMPNGPMRITSGPFEPDLYKSEMEVQDAELKALLQSSASRKTQKKKKKKASKTAENATSGETLEENEAGD
modifications: FLAG tag
Take B1: the “sites that developed tumors at the end of both studies” value in the test with C81 cells (C81 EBP1 transfectants (vector 25/26), p=0.00001) is 10/26. Besides, the “inoculation sites with tumors on Day 28 post transplantation” value in the test with C81 cells (C81 EBP1 transfectants (vector controls 24/26)) is recorded as 1/26. Moreover, the “day on which the first tumor was observed” value in the test with C81 cells (C81 EBP1 transfectants s.c. in female nude mice (vector day 8)) was found to be 20 days. Moreover, the “average tumor volume at the end of the first study” value in the test on C81 cells (C81 EBP1 transfectants, 6 sites per group, Mean+S.E. (vector 998±206), p=0.01) worked out at 104±70 mm^3. Moreover, the “average tumor volume, second experiment” value in the test on C81 cells (C81 EBP1 transfectants, 20 sites per group (vector 561±47), p=0.0001, in mm³ (unit assumed)) is listed as 206±54. The “decrease of ErbB2 protein” value in the test with AU565 cells was determined as 57%.

The record behind these values is patent US7838495B2, “Compositions and methods of use of EPB1, and ErbB3 binding protein” (University of Maryland, Baltimore, priority 2007, dated 2010).
